According to publication doi:10.1101/2021.01.14.426755 (bioRxiv, 2021):

T1: Rad4 (yeast, UniProt P14736 1-754)
T1 sequence: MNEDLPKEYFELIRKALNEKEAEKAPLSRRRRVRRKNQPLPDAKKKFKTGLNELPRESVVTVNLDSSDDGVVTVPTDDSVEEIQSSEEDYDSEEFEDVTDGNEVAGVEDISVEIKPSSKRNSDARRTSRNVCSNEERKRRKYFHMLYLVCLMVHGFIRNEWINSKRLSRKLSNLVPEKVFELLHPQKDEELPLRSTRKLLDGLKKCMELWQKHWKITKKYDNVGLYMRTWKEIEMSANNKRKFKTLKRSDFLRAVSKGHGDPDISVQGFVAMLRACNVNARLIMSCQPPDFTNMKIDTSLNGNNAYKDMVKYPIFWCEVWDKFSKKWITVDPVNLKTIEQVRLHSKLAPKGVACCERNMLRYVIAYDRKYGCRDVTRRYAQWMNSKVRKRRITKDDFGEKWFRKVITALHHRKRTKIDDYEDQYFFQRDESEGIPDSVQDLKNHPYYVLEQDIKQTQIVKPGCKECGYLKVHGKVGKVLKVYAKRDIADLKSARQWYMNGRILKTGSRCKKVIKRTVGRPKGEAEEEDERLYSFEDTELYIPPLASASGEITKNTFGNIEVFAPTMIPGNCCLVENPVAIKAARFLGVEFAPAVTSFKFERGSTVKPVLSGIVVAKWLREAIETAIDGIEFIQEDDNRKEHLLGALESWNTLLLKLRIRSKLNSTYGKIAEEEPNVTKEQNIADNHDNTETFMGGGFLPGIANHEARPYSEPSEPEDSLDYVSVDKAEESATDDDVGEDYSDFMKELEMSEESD

T2: Rad3 (yeast (endogenous, purified from yeast), UniProt P06839 1-778)
T2 sequence: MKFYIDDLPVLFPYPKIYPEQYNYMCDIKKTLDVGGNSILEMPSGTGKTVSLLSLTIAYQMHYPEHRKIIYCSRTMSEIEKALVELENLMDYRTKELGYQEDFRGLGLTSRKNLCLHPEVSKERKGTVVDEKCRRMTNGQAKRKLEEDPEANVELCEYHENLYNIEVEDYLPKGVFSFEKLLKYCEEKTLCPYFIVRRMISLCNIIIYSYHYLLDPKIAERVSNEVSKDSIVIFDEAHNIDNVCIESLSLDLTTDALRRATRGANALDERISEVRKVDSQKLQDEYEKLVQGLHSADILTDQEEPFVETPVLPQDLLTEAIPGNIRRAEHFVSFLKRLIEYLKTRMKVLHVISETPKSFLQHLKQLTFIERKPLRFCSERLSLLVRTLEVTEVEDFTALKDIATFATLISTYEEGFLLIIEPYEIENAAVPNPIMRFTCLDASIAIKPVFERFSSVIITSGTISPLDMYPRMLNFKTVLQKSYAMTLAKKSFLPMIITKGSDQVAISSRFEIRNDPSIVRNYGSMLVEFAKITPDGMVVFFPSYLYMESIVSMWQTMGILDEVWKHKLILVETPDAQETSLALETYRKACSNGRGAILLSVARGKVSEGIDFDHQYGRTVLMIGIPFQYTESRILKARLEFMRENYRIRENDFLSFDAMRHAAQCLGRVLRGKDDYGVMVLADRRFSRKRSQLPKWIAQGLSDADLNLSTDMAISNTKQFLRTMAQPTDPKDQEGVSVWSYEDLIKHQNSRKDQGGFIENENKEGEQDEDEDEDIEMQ

T3: Rad4-Rad23-Rad33 complex (yeast, UniProt P14736 1-754; P32628 1-398; Q04231 1-177)
T3 sequence 1: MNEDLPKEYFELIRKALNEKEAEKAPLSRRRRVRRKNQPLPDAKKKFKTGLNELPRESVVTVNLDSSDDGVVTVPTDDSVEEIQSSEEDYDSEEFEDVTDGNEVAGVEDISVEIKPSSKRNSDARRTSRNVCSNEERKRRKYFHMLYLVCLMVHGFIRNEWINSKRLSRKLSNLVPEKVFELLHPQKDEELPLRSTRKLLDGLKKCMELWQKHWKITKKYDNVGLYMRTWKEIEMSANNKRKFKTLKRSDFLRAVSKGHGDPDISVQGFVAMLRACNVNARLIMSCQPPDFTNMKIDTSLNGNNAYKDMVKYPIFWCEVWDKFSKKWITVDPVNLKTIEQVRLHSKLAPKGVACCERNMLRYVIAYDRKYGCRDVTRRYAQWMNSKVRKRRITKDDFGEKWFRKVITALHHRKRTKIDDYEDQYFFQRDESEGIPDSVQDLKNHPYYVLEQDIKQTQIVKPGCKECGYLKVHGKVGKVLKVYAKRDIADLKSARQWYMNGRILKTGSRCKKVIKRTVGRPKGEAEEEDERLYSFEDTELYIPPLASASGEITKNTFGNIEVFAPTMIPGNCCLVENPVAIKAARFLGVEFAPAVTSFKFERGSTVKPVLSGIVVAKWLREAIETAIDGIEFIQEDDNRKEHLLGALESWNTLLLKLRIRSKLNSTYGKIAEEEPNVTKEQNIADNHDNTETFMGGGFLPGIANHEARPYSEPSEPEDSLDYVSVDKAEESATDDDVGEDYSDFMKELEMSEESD
T3 sequence 2: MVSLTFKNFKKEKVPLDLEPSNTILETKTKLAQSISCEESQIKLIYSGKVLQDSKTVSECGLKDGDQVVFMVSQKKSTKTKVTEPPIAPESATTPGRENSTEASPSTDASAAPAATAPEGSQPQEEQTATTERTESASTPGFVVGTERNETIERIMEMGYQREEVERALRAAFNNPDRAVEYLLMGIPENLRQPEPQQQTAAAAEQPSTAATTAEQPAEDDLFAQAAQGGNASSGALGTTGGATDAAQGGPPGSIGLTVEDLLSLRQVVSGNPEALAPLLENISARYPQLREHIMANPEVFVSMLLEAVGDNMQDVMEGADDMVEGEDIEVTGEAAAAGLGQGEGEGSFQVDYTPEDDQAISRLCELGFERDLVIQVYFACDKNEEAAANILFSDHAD
T3 sequence 3: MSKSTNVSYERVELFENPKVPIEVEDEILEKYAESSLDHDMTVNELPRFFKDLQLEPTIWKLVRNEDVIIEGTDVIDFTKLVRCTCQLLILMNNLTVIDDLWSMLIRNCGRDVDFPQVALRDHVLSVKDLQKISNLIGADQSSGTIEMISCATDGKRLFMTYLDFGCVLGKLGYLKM

B1: Ssl2 (natural protein)
chain: MTDVEGYQPKSKGKIFPDMGESFFSSDEDSPATDAEIDENYDDNRETSEGRGERDTGAMVTGLKKPRKKTKSSRHTAADSSMNQMDAKDKALLQDTNSDIPADFVPDSVSGMFRSHDFSYLRLRPDHASRPLWISPSDGRIILESFSPLAEQAQDFLVTIAEPISRPSHIHEYKITAYSLYAAVSVGLETDDIISVLDRLSKVPVAESIINFIKGATISYGKVKLVIKHNRYFVETTQADILQMLLNDSVIGPLRIDSDHQVQPPEDVLQQQLQQTAGKPATNVNPNDVEAVFSAVIGGDNEREEEDDDIDAVHSFEIANESVEVVKKRCQEIDYPVLEEYDFRNDHRNPDLDIDLKPSTQIRPYQEKSLSKMFGNGRARSGIIVLPCGAGKTLVGITAACTIKKSVIVLCTSSVSVMQWRQQFLQWCTLQPENCAVFTSDNKEMFQTESGLVVSTYSMVANTRNRSHDSQKVMDFLTGREWGFIILDEVHVVPAAMFRRVVSTIAAHAKLGLTATLVREDDKIGDLNFLIGPKLYEANWMELSQKGHIANVQCAEVWCPMTAEFYQEYLRETARKRMLLYIMNPTKFQACQFLIQYHERRGDKIIVFSDNVYALQEYALKMGKPFIYGSTPQQERMNILQNFQYNDQINTIFLSKVGDTSIDLPEATCLIQISSHYGSRRQEAQRLGRILRAKRRNDEGFNAFFYSLVSKDTQEMYYSTKRQAFLVDQGYAFKVITHLHGMENIPNLAYASPRERRELLQEVLLKNEEAAGIEVGDDADNSVGRGSNGHKRFKSKAVRGEGSLSGLAGGEDMAYMEYSTNKNKELKEHHPLIRKMYYKNLKK

Tests used:
Rad4 = target: T1, Rad4; experiment: cryo-EM structure
Ssl2 = target: B1; experiment: cryo-EM structure
Rad3 = target: T2, Rad3; experiment: cryo-EM structure
Rad4-Rad23-Rad33 complex = target: T3, Rad4-Rad23-Rad33 complex; experiment: cross-linking

Row | Binder | binding result (Rad4) | binding result (Ssl2) | binding result (Rad3) | binding result (Rad4-Rad23-Rad33 complex)
1 | Rad33 (natural protein) MSKSTNVSYERVELFENPKVPIEVEDEILEKYAESSLDHDMTVNELPRFFKDLQLEPTIWKLVRNEDVIIEGTDVIDFTKLVRCTCQLLILMNNLTVIDDLWSMLIRNCGRDVDFPQVALRDHVLSVKDLQKISNLIGADQSSGTIEMISCATDGKRLFMTYLDFGCVLGKLGYLKM | binds | binds |  | 
2 | Tfb1 (natural protein) MSHSGAAIFEKVSGIIAINEDVSPAELTWRSTDGDKVHTVVLSTIDKLQATPASSEKMMLRLIGKVDESKKRKDNEGNEVVPKPQRHMFSFNNRTVMDNIKMTLQQIISRYKDADIYEEKRRREESAQHTETPMSSSSVTAGTPTPHLDTPQLNNGAPLINTAKLDDSLSKEKLLTNLKLQQSLLKGNKVLMKVFQETVINAGLPPSEFWSTRIPLLRAFALSTSQKVGPYNVLSTIKPVASSENKVNVNLSREKILNIFENYPIVKKAYTDNVPKNFKEPEFWARFFSSKLFRKLRGEKIMQNDRGDVIIDRYLTLDQEFDRKDDDMLLHPVKKIIDLDGNIQDDPVVRGNRPDFTMQPGVDINGNSDGTVDILKGMNRLSEKMIMALKNEYSRTNLQNKSNITNDEEDEDNDERNELKIDDLNESYKTNYAIIHLKRNAHEKTTDNDAKSSADSIKNADLKVSNQQMLQQLSLVMDNLINKLDLNQVVPNNEVSNKINKRVITAIKINAKQAKHNNVNSALGSFVDNTSQANELEVKSTLPIDLLESCRMLHTTCCEFLKHFYIHFQSGEQKQASTVKKLYNHLKDCIEKLNELFQDVLNGDGESMSNTCTAYLKPVLNSITLATHKYDEYFNEYNNNSN | binds |  | binds | binds
3 | Ssl1 (natural protein) MAPVVISESEEDEDRVAITRRTKRQVHFDGEGDDRVDQQQQQHSSSHRDRDKHVQRKKKKRLSNRNLQGSNGGYAWEDEIKRSWDLVKVDDEGDMASLVASIVEARKKRTAKKNITPYQRGIIRSLILTLDCSEAMLEKDLRPNRHAMIIQYAIDFVHEFFDQNPISQMGIIIMRNGLAQLVSQVSGNPQDHIDALKSIRKQEPKGNPSLQNALEMARGLLLPVPAHCTREVLIVFGSLSTTDPGDIHQTIDSLVSEKIRVKVLGLSAQVAICKELCKATNYGDESFYKILLDETHLKELFNEAVTPLPVNKINKGFTLVKMGFPTRIFEDTPTFCSCHSKLVYGGYFCPNCHSKVCSLPTVCPCCDLMLILSTHLARSYHHLMPLKTFAEVPTTEKFRSEDCFSCQSRFPILKNHKNGKLLTSSRYRCEDCKQEFCVDCDVFIHEILHNCPGCESKPVIT |  |  | binds | 
4 | B1 |  |  |  | binds
